Measurements from patent US20230227571A1 (published 2023).
Like-named read-outs stand apart in the source and are kept apart here. Each block holds one binder with its values, some of them ahead of it.

How the values were obtained:
Assay in all cases: SPR (Biacore)
[1] = target: T1, human C5 (purified human complement C5, Complement Technology #A120; also C5 in normal human serum) (human, UniProt P01031 19-673; P01031 678-1676)
[2] = target: T1, human C5 (purified human complement C5, …); remark: listed apart in the source
[3] = target: T1, human C5 (purified human complement C5, …); remark: listed apart in the source
[4] = target: T1, human C5 (purified human complement C5, …); remark: listed apart in the source
[5] = target: T1, human C5 (purified human complement C5, …); remark: listed apart in the source

T1 sequence (P01031 19-673, chain 1 of 2): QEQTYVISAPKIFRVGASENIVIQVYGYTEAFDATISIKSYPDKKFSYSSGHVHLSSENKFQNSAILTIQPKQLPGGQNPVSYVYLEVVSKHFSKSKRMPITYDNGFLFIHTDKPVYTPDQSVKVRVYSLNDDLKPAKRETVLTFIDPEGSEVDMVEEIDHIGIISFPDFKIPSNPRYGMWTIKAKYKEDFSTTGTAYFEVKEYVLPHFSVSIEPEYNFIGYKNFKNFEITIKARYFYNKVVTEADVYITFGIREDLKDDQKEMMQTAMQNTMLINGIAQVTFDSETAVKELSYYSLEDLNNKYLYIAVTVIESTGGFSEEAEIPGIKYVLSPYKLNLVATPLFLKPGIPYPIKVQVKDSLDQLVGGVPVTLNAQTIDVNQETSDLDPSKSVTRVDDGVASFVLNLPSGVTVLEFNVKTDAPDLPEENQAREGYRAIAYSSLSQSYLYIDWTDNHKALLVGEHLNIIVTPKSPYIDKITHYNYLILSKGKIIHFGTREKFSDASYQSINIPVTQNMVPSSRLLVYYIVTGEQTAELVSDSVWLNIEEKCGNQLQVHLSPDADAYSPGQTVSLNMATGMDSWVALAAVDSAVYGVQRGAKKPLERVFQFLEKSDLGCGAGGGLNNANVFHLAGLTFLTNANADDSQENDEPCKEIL
T1 sequence (P01031 678-1676, chain 2 of 2): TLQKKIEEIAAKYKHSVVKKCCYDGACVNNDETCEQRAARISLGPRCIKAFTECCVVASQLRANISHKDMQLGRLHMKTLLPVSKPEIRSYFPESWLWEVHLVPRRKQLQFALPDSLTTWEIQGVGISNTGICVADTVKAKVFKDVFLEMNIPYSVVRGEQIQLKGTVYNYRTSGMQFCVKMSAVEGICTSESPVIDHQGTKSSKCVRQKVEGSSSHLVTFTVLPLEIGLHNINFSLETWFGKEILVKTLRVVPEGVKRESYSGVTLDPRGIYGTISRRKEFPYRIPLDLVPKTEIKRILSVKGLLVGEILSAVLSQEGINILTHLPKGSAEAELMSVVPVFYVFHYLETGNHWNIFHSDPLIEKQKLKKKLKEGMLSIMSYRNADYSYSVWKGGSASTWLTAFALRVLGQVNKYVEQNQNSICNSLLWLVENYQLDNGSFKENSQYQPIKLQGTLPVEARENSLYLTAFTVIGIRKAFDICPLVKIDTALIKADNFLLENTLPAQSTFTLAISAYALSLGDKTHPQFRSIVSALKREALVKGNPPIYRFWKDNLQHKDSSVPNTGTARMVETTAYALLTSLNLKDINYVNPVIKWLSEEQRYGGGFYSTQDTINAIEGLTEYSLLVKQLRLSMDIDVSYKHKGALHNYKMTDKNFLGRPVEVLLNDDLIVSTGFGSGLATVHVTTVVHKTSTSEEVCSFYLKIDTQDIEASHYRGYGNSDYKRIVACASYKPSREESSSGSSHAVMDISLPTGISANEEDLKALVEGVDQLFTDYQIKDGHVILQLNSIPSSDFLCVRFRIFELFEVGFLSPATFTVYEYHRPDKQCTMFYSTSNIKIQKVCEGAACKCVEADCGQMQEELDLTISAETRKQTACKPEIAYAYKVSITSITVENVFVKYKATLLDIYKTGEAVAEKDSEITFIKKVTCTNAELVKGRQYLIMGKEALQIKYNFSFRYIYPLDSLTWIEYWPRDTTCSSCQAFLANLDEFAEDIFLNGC

B2: anti-human C5 mAb 2G1 (antibody, V domains shown)
VH: EVQLQQSGPELVKPGASVKISCKASGYTITDYNLDWVKQSHGKSLEWIGDISPNYGYTIYNQKFKDKATLTVDRSSSTAYMELRSLTSEDTAVYYCARRDIRYSGNSYKWYFDVWGTGTTVTVSS
VL: DVQITQSPSYLAASPGETITINCRTSKSISKYLAWYQEKPGKTNKLLIYSGSTLQSGIPSRFRGSGSGTDFTLTISSLEPEDFAMYYCQQHNEYPYTFGGGTKLEIK
Kd [2]: 0.845 nM

B3: anti-human C5 mAb 8E1 (antibody, V domains shown)
VH: QVQLKESGPGLVAPSQSLSITCTVSGFPLNNYGIHWVRQPPGKGLEWLAVIWSDGRTTYNSALNSRLSISKDNSKSQVFFKMNSLQTDDTAMYYCARHDGRGDYSMDYWGQGTSVTVSS
VL: ELVMTQSPASLVVSLGQRATISCRASKGVSTSVYSYMHWYQQKPGQPPKLLIYLASNLESGVPARFSGSGSGTDFSLNIHPVEEEDAATYYCQQSGELPLTFGAGTKLELKR
Kd [3]: 0.427 nM

B5: anti-human C5 mAb 9G6 (antibody, V domains shown)
VH: QIQLVQSGPELKKPGETVKISCKASGYTFTEYPMHWVKQAPGKSFKWMGILYTDTGEPTYAEEFRGRFAFSLETSASTAYLQINNLKNEDTATYFCVHSGYVGYWGQGTTLTVSS
VL: DIQMTQSPASLSASVGETVTFTCRASEIIYSYLVWYQQKQGKSPQLLVSNAKTLAEGVPSRFSGSGSGTQFSLKINSLQPEDFGSYYCQHYYGNPPTFGGGTKLEIKR
Kd [5]: 2.2 nM

The remaining lines, values ahead:

Kd [1]: 12.5 nM
B1: anti-human C5 mAb 11C5 (antibody, V domains shown)
VH: EVQLVESGGGLVKPGGSLKLSCAASGFTFTTYAMSWVRQTPEKRLEWVATISAGGTYTYYSDNVKGRFTISRDNAKNNLYLQMSHLKSEDTAMFYCARDPDYYGRSPFAYWGQGTLVTVSA
VL: EIVLTQSPATLSVTPGESVSLSCRASQSISNNLQWYQQKSHESPRLLIKYASQSISGIPSRFSGSGSGTDFTLSINSVETEDFGMYFCQQSNSWPLTFGGGTKVELKR

Kd [4]: 2.2 nM
B4: anti-human C5 mAb 11D9 (antibody, V domains shown)
VH: EVQLQQSGPEVVKPGASVKISCKASGYTFTDFYMNWVKQSHGKSLEWIGYINPNNGDTSYNQKFKGKATSTVDRSSNTAYMELRSLTSEDSAVYYCARLIFYGNWYFDVWGTGTTVTVSS
VL: EIVLTQSPPTMAASPGEKITITCSASSSISSNYVHWYQQKPGFSPKLLIYRTSNLASGVPVRFSGSGSGTSYSLTIGTMEAEDVATYYCQQGTSIPWTFGGGTKVEINR
